Measured values: paper PMC5548138 (Neuron, 2017)

Biological target: recombinant bovine NX-1α protein (btNX-1α), ectodomain L1-L6 his6 (bovine, UniProt Q28146 31-1454)
Test: co-IP

recombinant bovine NX-1α protein (btNX-1α), ectodomain L1-L6 his6, sequence (Q28146 31-1454): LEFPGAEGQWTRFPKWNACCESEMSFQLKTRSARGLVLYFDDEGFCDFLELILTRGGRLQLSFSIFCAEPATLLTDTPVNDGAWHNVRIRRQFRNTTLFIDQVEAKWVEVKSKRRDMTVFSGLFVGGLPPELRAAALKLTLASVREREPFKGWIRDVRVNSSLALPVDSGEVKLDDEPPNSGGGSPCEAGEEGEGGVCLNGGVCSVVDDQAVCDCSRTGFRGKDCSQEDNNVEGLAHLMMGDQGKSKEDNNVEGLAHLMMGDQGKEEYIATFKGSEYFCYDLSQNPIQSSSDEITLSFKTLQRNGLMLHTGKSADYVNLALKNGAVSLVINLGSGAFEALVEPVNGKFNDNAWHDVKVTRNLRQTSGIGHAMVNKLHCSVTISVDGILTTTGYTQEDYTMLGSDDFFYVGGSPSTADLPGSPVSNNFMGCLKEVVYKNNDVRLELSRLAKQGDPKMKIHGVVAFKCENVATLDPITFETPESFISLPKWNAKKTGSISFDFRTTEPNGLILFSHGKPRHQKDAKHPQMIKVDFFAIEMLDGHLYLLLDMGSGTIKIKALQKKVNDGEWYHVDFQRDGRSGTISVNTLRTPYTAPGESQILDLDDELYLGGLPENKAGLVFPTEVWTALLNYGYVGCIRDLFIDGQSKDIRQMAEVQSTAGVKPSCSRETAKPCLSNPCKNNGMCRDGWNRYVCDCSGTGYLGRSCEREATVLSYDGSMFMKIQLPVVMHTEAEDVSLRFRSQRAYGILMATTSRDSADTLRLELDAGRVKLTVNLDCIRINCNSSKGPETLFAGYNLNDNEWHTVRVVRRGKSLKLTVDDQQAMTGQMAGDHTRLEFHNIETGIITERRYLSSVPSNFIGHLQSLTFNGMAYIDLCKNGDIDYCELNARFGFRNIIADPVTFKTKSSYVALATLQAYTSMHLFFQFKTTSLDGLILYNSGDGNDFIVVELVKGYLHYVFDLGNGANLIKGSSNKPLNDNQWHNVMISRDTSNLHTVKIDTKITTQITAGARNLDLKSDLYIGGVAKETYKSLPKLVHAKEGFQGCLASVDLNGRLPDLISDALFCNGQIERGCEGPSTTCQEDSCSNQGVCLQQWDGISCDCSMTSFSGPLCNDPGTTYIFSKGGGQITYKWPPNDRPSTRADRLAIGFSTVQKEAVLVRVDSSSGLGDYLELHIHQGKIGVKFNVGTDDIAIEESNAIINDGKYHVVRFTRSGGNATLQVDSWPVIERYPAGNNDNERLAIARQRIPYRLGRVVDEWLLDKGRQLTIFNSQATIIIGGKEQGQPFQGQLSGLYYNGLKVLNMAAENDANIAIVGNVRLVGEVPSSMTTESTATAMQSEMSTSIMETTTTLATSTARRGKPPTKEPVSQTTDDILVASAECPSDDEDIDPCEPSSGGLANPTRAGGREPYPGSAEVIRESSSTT

B1: HA-tagged α2δ-3 (mouse) (natural protein, UniProt Q9Z1L5 34-1091, looked up)
chain: EQQIPLSVVKLWASAFGGEIKSIAAKYSGSQLLQKKYKEYEKDVAIEEIDGLQLVKKLAKIMEEMFHKKSEAVRRLVEAAEEAHLKHEFDADLQYEYFNAVLINERDKDGNFLELGKEFILAPNDHFNNLPVNISLSDVQVPTNMYNKDPAIVNGVYWSESLNKVFVDNFDRDPSLIWQYFGSAKGFFRQYPGIKWEPDENGVIAFDCRNRKWYIQAATSPKDVVILVDVSGSMKGLRLTIAKQTVSSILDTLGDDDFFNIITYNEELHYVEPCLNGTLVQADRTNKEHFREHLDKLFAKGIGMLDIALNEAFNILSDFNHTGQGSICSQAIMLITDGAVDTYDTIFAKYNWPDRKVRIFTYLIGREAAFADNLKWMACANKGFFTQISTLADVQENVMEYLHVLSRPKVIDQEHDVVWTEAYIDSTLPQAQKLADDQGLVLMTTVAMPVFSKQNETRSKGILLGVVGTDVPVKELLKTIPKYKLGIHGYAFAITNNGYILTHPELRPLYEEGKKRRKPNYSSVDLSEVEWEDRDDVLRNAMVNRKTGKFSMEVKKTVDKGKRVLVMTNDYYYTDIKGTPFSLGVALSRGHGKYFFRGNVTIEEGLHDLEHPDVSLADEWSYCNTDLHPEHRHLSQLEAIKLYLKGKEPLLQCDKELIQEVLFDAVVSAPIEAYWTSLALNKSENSDKGVEVAFLGTRTGLSRINLFVGAEQLTNQDFLKAGDKENIFNADHFPLWYRRAAEQIAGSFVYSIPFSTGTVNKSNVVTASTSIQLLDERKSPVVAAVGIQMKLEFFQRKFWTASRQCASLDGKCSISCDDETVNCYLIDNNGFILVSEDYTQTGDFFGEVEGAVMNKLLTMGSFKRITLYDYQAMCRANKESSDSAHGLLDPYKAFLSAAKWIMTELVLFLVEFNLCSWWHSDMTAKAQKLKQTLEPCDTEYPAFVSERTIKETTGNIACEDCSKSFVIQQIPSSNLFMVVVDSSCLCESVAPITMAPIEIRYNESLKCERLKAQKIRRRPESCHGFHPEENARECGGASSLQAQAALLLLPLVSSLFSR
Kd: ~40 nM
